Data from US20070172470A1, “Phosphatase regulation of nucleic acid transcription” (The Regents of the University of California, priority 2003, published 2007).

How the values were obtained:
[1] = assay type: biochemical; conditions: PNθP as substrate
[2] = tested on: PPARγ receptor activity on PPARγ promoter response element; assay: Luciferase reporter assay, ligand-activated PPARγ receptor; assay type: cell-based, human
From the text: Gal4-DNA binding domain-SCP1 fusion protein expression plasmids-were cotransfected in HEK293 cells with a Gal 4-TKLuc reporter plasmid and luciferase gene expression quantitated. In all panels, results of triplicate transfections are shown +/− SD. Data is expressed as fold-activation experimental/control). […] The indicated amounts of SCP1 or mutant SCP1 expression plasmids were cotransfected in HEK293 cells along with Gal 4-VP16 expression and Gal 4-TK-Luc reporter plasmids and luciferase activity was quantitated. […] The indicated receptor expression plasmids were cotransfected with their cognate promoter-reporter plasmids with or without SCP1 or mutant SCP1 expression plasmids. Cells were treated or untreated with receptor-specific ligands as described infra. […] The indicated concentrations of SCP1 and mutant SCP1 expression plasmids were cotransfected with LMX1 and E47 expression plasmids and the rat insulin 1 promoter-luciferase reporter gene. Luciferase activity was measured as described.
Tissue Culture and Transfections: Human 293, COS7 and CV1 cells were grown at 37° C. in DMEM supplemented with 10% normal calf serum (BRL). Sub-confluent cells were transfected in 6 well tissue culture dishes using Effectene (Qiagen) according to the manufacturer's instructions. Reporter and activator plasmids (100 ng each) and Flag SCP1 (80 ng) or its mutant were used per well. […]

[3] = tested on: P19 mouse embryonic stem cells; assay: Neuronal differentiation of P19 cells; assay type: cell-based; conditions: clonal P19 line, retinoic acid, selective medium
Description: P19 cells, C, differentiated GFP expressing P19 cells; D, differentiated SCP1-expressing P19 cells; F, differentiated REST/NRSF-expressing P19 cells. Numbers of NLC per field are shown. *p=0.001 compared to WT 19 cells; **p=0.008 compared to WT P19 cell using student's t-test.
P19 stably expressing REST/NRSF.
These cell lines were maintained in α-MEM/10%FBS with […] G418. To induce neuronal differentiation, P19 cells were allowed to aggregate in bacterial grade petri-dishes (Fisher) at a seeding density of 1×10^5cells/ml in the presence of 1×10^−6M all-trans retinoic acid. After 3 days of aggregation, cells were dissociated into single cells by 0.05% trypsin-0.53 mM EDTA (Gibco). Trypsin was removed by centrifugation and the cells were plated in 6 cm tissue culture dishes (Nunc). at a density of 1×10^5 cells/cm^2 in Neurobasal medium/N2 supplement (Invitrogen) in the presence or absence of 1 μg/ml fibronectin (Invitrogen). The cells were cultured for 5 days after which average cell numbers/field were determined. Cells were either lysed to prepare total RNA (Rneasy kit, Qiagen) or stained with TuJ1 antibody (Babco).
For immunostaining, cells were fixed for 10 mins with 4% paraformaldehyde. TuJ1 antibody was used at 1:2000 and secondary antibody used was FITC-conjuagated anti-mouse (1:3000).

B1: SCP1: small CTD phosphatase-1, full-length 261 aa human protein, SEQ ID NO:2 (protein, listed as Homo sapiens)
chain: MDSSAVITQISKEEARGPLRGKGDQKSAASQKPRSRGILHSLFCCVCRDDGEALPAHSGAPLLVEENGAIPKTPVQYLLPEAKAQDSDKICVVIDLDETLVHSSFKPVNNADFIIPVEIDGVVHQVYVLKRPHVDEFLQRMGELFECVLFTASLAKYADPVADLLDKWGAFRARLFRESCVFHRGNYVKDLSRLGRDLRRVLILDNSPASYVFHPDNAVPVASWFDNMSDTELHDLLPFFEQLSRVDDVYSVLRQPRPGS
**Q.** With B1 as the molecule, how does the “pH optimum for SCP1 phosphatase activity” value ([1]; GST-fusion) read?
**A.** ~5

**Q.** What about the “divalent metal ion requirement of phosphatase activity” value ([1]; Ca2+ could not substitute) of the same molecule?
**A.** Mg^2+-dependent

**Q.** And the “ligand-activated PPARγ receptor activity” value [2]?
**A.** inhibited

**Q.** And the “effect on neuronal differentiation” value [3]?
**A.** did not affect the extent of neuronal differentiation
